How the values were obtained:
[1] = biological target: T1, human glypican-1 (GPC-1) (human, UniProt P35052 24-530); assay: statement opening Example 7; no assay named
T1 construct: whole, on cells; also called GPC-1 antigen
T1 sequence (looked up): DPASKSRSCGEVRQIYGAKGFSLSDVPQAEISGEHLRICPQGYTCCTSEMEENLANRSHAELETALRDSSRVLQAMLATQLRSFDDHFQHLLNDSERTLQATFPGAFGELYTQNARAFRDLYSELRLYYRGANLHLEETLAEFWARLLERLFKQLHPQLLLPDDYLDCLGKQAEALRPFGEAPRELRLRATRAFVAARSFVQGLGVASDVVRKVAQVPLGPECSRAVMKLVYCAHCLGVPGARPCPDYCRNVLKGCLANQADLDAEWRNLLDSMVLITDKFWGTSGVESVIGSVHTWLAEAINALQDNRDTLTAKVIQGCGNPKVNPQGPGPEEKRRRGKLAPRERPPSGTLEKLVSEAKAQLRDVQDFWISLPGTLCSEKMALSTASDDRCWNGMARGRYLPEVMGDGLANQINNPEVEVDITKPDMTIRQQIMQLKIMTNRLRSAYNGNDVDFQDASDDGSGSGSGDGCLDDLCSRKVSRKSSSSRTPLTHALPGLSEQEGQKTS

[2] = biological target: T2, mouse GPC-1 (mouse, UniProt Q9QZF2 24-529); assay: statement opening Example 7; no assay named
T2 construct: whole, on cells; also called mouse glypican-1
T2 sequence (looked up): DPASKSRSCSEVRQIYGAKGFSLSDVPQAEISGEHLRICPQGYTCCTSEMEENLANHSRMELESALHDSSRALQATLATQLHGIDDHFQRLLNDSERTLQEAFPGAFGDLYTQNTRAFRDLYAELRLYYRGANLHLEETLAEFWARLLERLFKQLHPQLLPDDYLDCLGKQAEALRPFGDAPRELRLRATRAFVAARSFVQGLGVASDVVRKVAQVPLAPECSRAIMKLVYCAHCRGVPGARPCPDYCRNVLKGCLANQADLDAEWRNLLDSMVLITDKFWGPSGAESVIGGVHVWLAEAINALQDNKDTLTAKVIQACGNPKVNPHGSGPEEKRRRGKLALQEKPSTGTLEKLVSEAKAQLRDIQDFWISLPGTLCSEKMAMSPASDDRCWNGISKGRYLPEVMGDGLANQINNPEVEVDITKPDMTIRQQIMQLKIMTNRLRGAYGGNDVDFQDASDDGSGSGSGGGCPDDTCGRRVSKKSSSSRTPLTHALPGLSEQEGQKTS

B1: anti-GPC-1-CAR (Type A or Type B not stated) (other)
VH: AVTLDESGGGLQTPGRALSLVCKASGFTFSRYAMYWVRQAPGKGLEFVAGIGNTGRYTGYGSAVKGRATISRDSGQSTVRLQLNNLRAEDTGNYYCAKSVSPYCCDAADIDAWGHGTEVIVSS
VL: ASTQPSSVSANPGETVKITCSGGSSGYAYGWYQQKSPGSAPVTLLYSNNNRPSDIPSRFSGSKSGSTATLTITGVQAEDEAVYFCGSVDSSSYAGIFGAGTTLTVL
notes: VH and VL in truth stand in one CAR chain with a (Gly4Ser)3 linker, a human CD28-derived part and the human CD3zeta intracellular domain; also called GPC-1 CAR gene of the invention; CAR of the anti-GPC-1-CAR-T cells
binding result [1]: binds
binding result [2]: binds

Source: patent US20220356265A1 (KEIO UNIVERSITY, published 2022)
